Source: US20260250331A1 (INTERNATIONAL AIDS VACCINE INITIATIVE, published 2026)
Positions count from the first letter of the chain named.

What was measured:
BG505 MD39 trimer [1] = target: BG505 MD39 trimer (HIV-1 BG505); assay: ELISA on BG505-MD39, mAb titrated from about 0.001 to 50 µg/mL
BG505 MD39 trimer [2] = target: BG505 MD39 trimer (HIV-1 BG505); assay: ELISA on BG505-MD39, BG18 as mAb titrated from about 0.001 to 50 µg/mL
N332-GT2 NP (ferritin) = N332-GT2 NP (ferritin) (HIV-1 BG505 Env fused to Helicobacter …); assay: SPR; NP captured as ligand with PGT128 IgG, Fab flowed as analyte
[3] = target: BG505 MD39 N332-GT2 trimer (HIV-1 BG505); assay: SPR, Fab and N332-GT2 trimer
[4] = target: BG505 MD39 N332-GT2 trimer (HIV-1 BG505); assay: SPR
[5] = target: BG505 MD39 N332-GT2 trimer (HIV-1 BG505); assay: SPR; reference 11mutB trimer
gp120-17mutE = assay: SPR
[6] = target: gp120-17mutE K137/M141/P325; assay: SPR
gp120-17mutE K137/P325 = assay: SPR
[7] = target: gp120-17mutE K137/R139/M141/P325; assay: SPR
gp120-17mutE K137/H325 = assay: SPR
[8] = target: BG505 MD39 N332-GT2 trimer (HIV-1 BG505); assay: SPR; KD scatter plot

B1: BG18.6H BG18.11L (antibody, V domains shown)
VH: QVQLQESGPGLVKPSGTLSLTCAVSGDSRPSDHSWSWVRQPPGKGLEWIGEIYYSGSTNYNPSLKSRVTISVDKSKNQFSLKLSSVTAADTAVYYCARNAIRIYGVVALGEWFHYGMDVWGQGTTVTVSS
VL: SYELTQPPSVSVSPGQTARITCSGDALPSRYAYWYQQKPGQAPVLVISRDSQRSSGISGRFSGSWSGTTVTLTISGVQAEDEADYYCQSSDSSDTYKVFGGGTKLTVL
notes: also called less mutated variant of BG18
EC50 (read off the curve) (BG505 MD39 trimer [1]): ~0.05 µg/mL

B2: BG18 Fab (Fab, V domains shown)
VH: QVQLRESGPGLVKPSETLSLSCTVSNDSRPSDHSWTWVRQSPGKALEWIGDIHYNGATTYNPSLRSRVRIELDQSIPRFSLKMTSMTAADTGMYYCARNAIRIYGVVALGEWFHYGMDVWGQGTAVTVSS
VL: SSELTQPPSVSVSPGQTARITCSGAPLTSRFTYWYRQKPGQAPVLIISRSSQRSSGWSGRFSASWSGTTVTLTIRGVQADDEADYYCQSSDTSDSYKMFGGGTKLTVL
notes: also called mature BG18; 354BG18
EC50 (read off the curve) (BG505 MD39 trimer [2]): ~0.02 µg/mL

B3: BG18 iGL0 Fab (Fab, V domains shown)
VH: QVQLQESGPGLVKPSGTLSLTCAVSGGSISSSNWWSWVRQPPGKGLEWIGEIYHSGSTNYNPSLKSRVTISVDKSKNQFSLKLSSVTAADTAVYYCARNAITIFGVVIIGEYYYYGMDVWGQGTTVTVSS
VL: not shown
Kd (N332-GT2 NP (ferritin)): 3 nM
Kd [3]: 4 nM

B4: BG18 iGL1 (antibody, V domains shown)
VH: B3 VH with I109L
VL: not shown
Kd [4]: 0.213 nM
fold improvement over 11mutB [5]: ~130000 fold
Kd (gp120-17mutE): ~14000 nM
Kd [6]: 2.5 nM
Kd (gp120-17mutE K137/P325): 11 nM
Kd [7]: 0.5 nM
Kd (gp120-17mutE K137/H325): 5.9 nM

B5: BG18 iGL1 with alternate germline VL gene VL3-19 (antibody, V domains shown)
VH: B3 VH with I109L
VL: SSELTQDPAVSVALGQTVRITCQGDSLRSYYASWYQQKPGQAPVLVIYGKNNRPSGIPDRFSGSSSGNTASLTITGAQAEDEADYYCNSRDSSGNHWVFGGGTKLTVL
binding result [4]: binds

B6: BG18 iGL1 with alternate germline VL gene VL2-8 (antibody, V domains shown)
VH: B3 VH with I109L
VL: QSALTQPPSASGSPGQSVTISCTGTSSDVGGYNYVSWYQQHPGKAPKLMIYEVSKRPSGVPDRFSGSKSGNTASLTVSGLQAEDEADYYCSSYAGSNNFWVFGGGTKLTVL
binding result [4]: binds

B7: BG18 iGL1 with alternate germline VL gene VL3-1 (antibody, V domains shown)
VH: B3 VH with I109L
VL: not shown
binding result [4]: binds

B8: pre13 (antibody, V domains shown)
VH: B3 VH with R98K, N99A, A100L, I101N, I108T, I109L, G110T, E111Q
VL: not shown
binding result [8]: no binding (tested: 100 µM)

B9: pre15 (antibody, V domains shown)
VH: B3 VH with N99D, A100I, I101H, T102N, I103S, I108S, I109L, G110D, E111Q, Y112N
VL: not shown
binding result [8]: no binding (tested: 100 µM)

B10: pre4 (antibody, V domains shown)
VH: B3 VH with N99E, A100R, I101D, I108S, I109L, G110R, E111V
VL: not shown
binding result [8]: no binding (tested: 100 µM)

B11: BG18 iGL1 with alternate germline VL gene VL3-10 (antibody, V domains shown)
VH: B3 VH with I109L
VL: SYELTQPPSVSVSPGQTARITCSGDALPKKYAYWYQQKSGQAPVLVIYKDSKRPSGIPERFSGSSSGTMATLTISGAQVEDEDDYYCYSADYSGNHWVFGGGTKLTVL
binding result [4]: binds

B12: pre14 (antibody, V domains shown)
VH: B3 VH with N99G, A100R, I108T, I109L, G110R, E111G
VL: not shown
notes: also called NGS pre14; NGS Pre14
Kd (N332-GT2 NP (ferritin)): 94 nM
Kd [3]: 136 nM
